Residue numbers refer to the chain shown, from its start.
B1: Clone CH2C.3 (designed binder)
chain: PCPAPELLGGPSVFLFPPKPKDTLMISRTPEVTCVVVDPQTPPWEVKFNWYVDGVEVHNAKTKPREEEYYSNYRVVSVLTVLHQDWLNGKEYKCKVSNKALPAPIEKTISKAKGQPREPQVYTLPPSRDELTKNQVSLTCLVKGFYPSDIAVEWESNGQPENNYKTTPPVLDSDGSFFLYSKLTVDKSRWQQGNVFSCSVMHEALHNHYTQKSLSLSPGK
B2: Clone CH2C.6 (designed binder)
chain: B1 chain with Q40K, T41M, S71T, N72Y
B3: Clone CH2C.4 (designed binder)
chain: B1 chain with P39F, Q40R, T41G, S71H, N72D
B4: Clone CH2C.5 (designed binder)
chain: B1 chain with P42V
B5: Clone CH2C.7 (designed binder)
chain: B1 chain with Q40P, T41V
notes: found on phage
B6: Clone CH2C.8 (designed binder)
chain: B1 chain with Q40A, T41F, S71Q
B7: Clone CH2C.2 (designed binder)
chain: B1 chain with Q40P, T41S
B8: Clone CH2C.1 (designed binder)
chain: B1 chain with S71T, N72Y
B9: Clone CH3C.35.N390.1 (designed binder)
chain: PCPAPELLGGPSVFLFPPKPKDTLMISRTPEVTCVVVDVSHEDPEVKFNWYVDGVEVHNAKTKPREEQYNSTYRVVSVLTVLHQDWLNGKEYKCKVSNKALPAPIEKTISKAKGQPREPQVYTLPPSRDELTKNQVSLTCLVKGFYPSDIAVEWESYGTEWSNYKTTPPVLDSDGSFFLYSKLTVSKSEWQQGFVFSCSVMHEALHNHYTQKSLSLSPGK
B10: Clone CH3C.35.23.2.1 (designed binder)
chain: B9 chain with S162A
B11: Clone CH3C.35.23.1.1 (designed binder)
chain: B9 chain with Y157F, S188E
B12: Clone CH3C.35.S413 (designed binder)
chain: B9 chain with N163S
B13: Clone CH3C.35.23.6.1 (designed binder)
chain: B9 chain with Y157F, S162V, S188E
B14: Clone CH3C.35.23.3.1 (designed binder)
chain: B9 chain with S162V, S188E
B15: Clone CH3C.35.20.1.1 (designed binder)
chain: B9 chain with Y157F, N163S, S188E
B16: Clone CH2C.17 (designed binder)
chain: B1 chain with P39M, Q40L, T41W, P43V, W44P, E68V, Y70H, S71R, N72P
notes: modified Fc; found by yeast display, tested on phage with holo-Tf
B17: Clone CH2C.22 (designed binder)
chain: B1 chain with P39D, Q40D, T41L, P42T, P43F, W44Q, E68L, Y70V, S71T, N72P
notes: as for B16
B18: Clone CH3B.1 (designed binder)
chain: PCPAPELLGGPSVFLFPPKPKDTLMISRTPEVTCVVVDVSHEDPEVKFNWYVDGVEVHNAKTKPREEQYNSTYRVVSVLTVLHQDWLNGKEYKCKVSNKALPAPIEKTISKAKGQPRFDYVTTLPPSRDELTKNQVSLTCLVKGFYPSDIAVEWESNGQPENNYKTTPPVLDSDGSFFLYSKLTVDKSRWQQGNVFSCSVMHEALHNHYGFHDLSLSPGK
B19: Clone CH3B.2 (designed binder)
chain: B18 chain with Y120M
B20: Clone CH3B.6 (designed binder)
chain: B18 chain with D119E, Y120I
B21: Clone CH3B.4 (designed binder)
chain: B18 chain with D119E, Y120M
B22: Clone CH3B.9 (designed binder)
chain: B18 chain with D119G, Y120M
B23: Clone CH3B.3 (designed binder)
chain: B18 chain with D119E
B24: Clone CH3B.7 (designed binder)
chain: B18 chain with Y120I
B25: Clone CH3B.5 (designed binder)
chain: B18 chain with D119E, Y120L
B26: Clone CH3B.12 (designed binder)
chain: B18 chain with H212S
B27: Clone CH3B.11 (designed binder)
chain: B18 chain with D119G, Y120L

Target: T1, cynomolgus transferrin receptor (TfR) ectodomain (ECD) (cynomolgus, UniProt Q5RDH6 121-760 (Pongo abelii entry), biotinylated where captured on streptavidin)
T1 construct: also called cyno TfR; cynoTfR
T1 chain: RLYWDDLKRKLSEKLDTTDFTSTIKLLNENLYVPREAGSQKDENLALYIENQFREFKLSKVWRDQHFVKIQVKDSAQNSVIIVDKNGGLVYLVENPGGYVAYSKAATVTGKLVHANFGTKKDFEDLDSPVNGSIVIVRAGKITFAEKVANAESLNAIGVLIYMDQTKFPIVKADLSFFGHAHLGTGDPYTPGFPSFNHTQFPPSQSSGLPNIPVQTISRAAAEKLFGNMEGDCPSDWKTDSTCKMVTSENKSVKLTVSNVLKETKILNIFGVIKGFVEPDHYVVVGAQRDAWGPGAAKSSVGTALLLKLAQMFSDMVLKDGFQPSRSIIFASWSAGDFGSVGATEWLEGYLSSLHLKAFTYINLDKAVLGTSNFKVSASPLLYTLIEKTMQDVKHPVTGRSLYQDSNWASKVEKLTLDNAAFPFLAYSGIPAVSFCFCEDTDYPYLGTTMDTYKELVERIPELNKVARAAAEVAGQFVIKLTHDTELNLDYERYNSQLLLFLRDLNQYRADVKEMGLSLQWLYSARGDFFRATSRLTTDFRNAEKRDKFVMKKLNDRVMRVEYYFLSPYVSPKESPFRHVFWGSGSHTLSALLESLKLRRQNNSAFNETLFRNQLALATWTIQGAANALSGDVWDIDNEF
Assay: ELISA, Fc-Fab fusion titrated on plate-coated cyno TfR; OD650
Description: (§1) The CH2C variants were expressed as Fc fusions to Fab fragments by cloning into an expression vector containing an anti-BACE1 benchmark variable region sequence.

Binder	binding result	EC50 (read off the curve)
B1	binds	
B2	binds	
B3		~8 nM
B4	binds	
B5	binds	
B6	binds	
B7	binds	
B8		~8 nM

What follows are binders tested against T2, human transferrin receptor (TfR) ectodomain (ECD) (human, UniProt P02786 121-760, biotinylated where captured on streptavidin) (assay: ELISA, Fc-Fab fusion titrated on plate-coated human TfR; OD650).
T2 construct: also called human TfR; huTfR
Description: as §1

Binder	binding result
B1	binds
B2	binds
B4	binds
B5	binds
B6	no binding (tested: 1000 nM)
B7	binds
B8	binds

The binders below were run against T2, human transferrin receptor (TfR) … (assay: SPR (Biacore), same protocol as previously described; form of human TfR not stated).
Target sequence in this assay (P02786 121-760): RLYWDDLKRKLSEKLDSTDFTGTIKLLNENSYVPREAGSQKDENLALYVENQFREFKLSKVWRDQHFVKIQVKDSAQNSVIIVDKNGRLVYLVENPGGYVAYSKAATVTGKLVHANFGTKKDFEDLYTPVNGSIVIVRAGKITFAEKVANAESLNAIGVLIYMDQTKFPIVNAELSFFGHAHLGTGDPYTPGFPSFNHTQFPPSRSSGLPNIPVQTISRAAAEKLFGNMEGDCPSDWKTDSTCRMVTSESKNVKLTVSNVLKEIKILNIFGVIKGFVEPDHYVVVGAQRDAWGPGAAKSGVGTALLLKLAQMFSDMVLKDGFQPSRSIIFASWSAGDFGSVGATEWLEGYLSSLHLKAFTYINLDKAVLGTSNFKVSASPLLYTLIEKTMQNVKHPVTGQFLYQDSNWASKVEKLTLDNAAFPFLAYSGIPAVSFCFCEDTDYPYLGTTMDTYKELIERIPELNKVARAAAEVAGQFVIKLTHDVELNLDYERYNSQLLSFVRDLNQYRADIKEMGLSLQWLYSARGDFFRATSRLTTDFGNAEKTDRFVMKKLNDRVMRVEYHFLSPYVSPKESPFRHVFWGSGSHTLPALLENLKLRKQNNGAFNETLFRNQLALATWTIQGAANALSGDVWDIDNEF

Binder	Kd
B9	2000 nM
B10	690 nM
B11	750 nM
B12	1700 nM
B13	2100 nM
B14	1900 nM
B15	620 nM

Each binder was assayed against streptavidin (Natural streptavidin is a homotetramer; one chain is given.) (assay: phage ELISA, phage dilution series on plate-coated streptavidin; OD650).

Binder	binding result
B16	no binding (tested: dilution 1 (least diluted phage))
B17	no binding (tested: dilution 1 (least diluted phage))

Target: T1, cynomolgus transferrin receptor (TfR) …
Assay: ELISA, Fc-Fab fusion (dimer format) titrated on plate-coated cyno TfR; OD650

Binder	EC50 (read off the curve)	binding result
B18	~3 nM	
B19	~2 nM	
B20		binds
B21		binds
B22		binds
B23		binds
B24		binds
B25		binds

The binders below were run against T2, human transferrin receptor (TfR) … (assay: ELISA, Fc-Fab fusion (dimer format) titrated on plate-coated human TfR; OD650).
Procedure: Fc regions comprising the CH3B clone sequences were fused to Fab fragments and were assayed in a dimer format.

Binder	EC50 (read off the curve)	binding result
B18	~4 nM	
B19	~4 nM	
B20		binds
B21		binds
B22		binds
B23		binds
B24		binds
B25		binds

What follows are binders tested against T2, human transferrin receptor (TfR) … (assay: phage ELISA, phage dilution series on plate-coated human TfR without and with holo-Tf; OD650).
Description: as §1
Target sequence in this assay (P02786 121-760): as above

Binder	binding result
B16	binds
B17	binds

Target: T2, human transferrin receptor (TfR) …
Assay: as above
Remark: another data set of the same source
Target sequence in this assay (P02786 121-760): as above

Binder	binding result
B26	binds
B27	binds

Source: patent publication US20230235072A1 (DENALI THERAPEUTICS, published 2023)
